# B1: purified wild-type lipin1β (His6-tagged, baculovirus expressed) (enzyme, mouse, UniProt Q91ZP3 1-924, looked up)
# chain: MNYVGQLAGQVFVTVKELYKGLNPATLSGCIDIIVIRQPNGSLQCSPFHVRFGKMGVLRSREKVVDIEINGESVDLHMKLGDNGEAFFVQETDNDQEIIPMYLATSPILSEGAARMESQLKRNSVDRIRCLDPTTAAQGLPPSDTPSTGSLGKKRRKRRRKAQLDNLKRDDNVNSSEDEDMFPIEMSSDEDTAPMDGSRTLPNDVPPFQDDIPKENFPSISTHPQSASYPSSDREWSPSPSSLVDCQRTPPHLAEGVLSSSCPLQSCHFHASESPSGSRPSTPKSDSELVSKSADRLTPKNNLEMLWLWGELPQAAKSSSPHKMKESSPLGSRKTPDKMNFQAIHSESSDTFSDQSPTMARGLLIHQSKAQTEMQFVNEEDLESLGAAAPPSPVAEELKAPYPNTAQSSSKTDSPSRKKDKRSRHLGADGVYLDDLTDMDPEVAALYFPKNGDPGGLPKQASDNGARSANQSPQSVGGSGIDSGVESTSDSLRDLPSIAISLCGGLSDHREITKDAFLEQAVSYQQFADNPAIIDDPNLVVKVGNKYYNWTTAAPLLLAMQAFQKPLPKATVESIMRDKMPKKGGRWWFSWRGRNATIKEESKPEQCLTGKGHNTGEQPAQLGLATRIKHESSSSDEEHAAAKPSGSSHLSLLSNVSYKKTLRLTSEQLKSLKLKNGPNDVVFSVTTQYQGTCRCEGTIYLWNWDDKVIISDIDGTITRSDTLGHILPTLGKDWTHQGIAKLYHKVSQNGYKFLYCSARAIGMADMTRGYLHWVNERGTVLPQGPLLLSPSSLFSALHREVIEKKPEKFKVQCLTDIKNLFFPNTEPFYAAFGNRPADVYSYKQVGVSLNRIFTVNPKGELVQEHAKTNISSYVRLCEVVDHVFPLLKRSHSCDFPCSDTFSNFTFWREPLPPFENQDMHSASA
# Target: the molecule itself
# Test: SEC
protein,measurement,value
B1,stoichiometry N,~4
